Measurements as given in article PMC4177580, “Diverse functional evolution of serine decarboxylases: identification of two novel acetaldehyde synthases that uses hydrophobic amino acids as substrates” (BMC Plant Biology, 2014).
One block for each molecule: values may come before it.

How the values were obtained:
SlAAAD = molecular target: T1, SlAAAD (Solanum lycopersicum, UniProt Q1KSC6); experiment: HPLC-EC decarboxylation assay; format: biochemical; conditions: 5 mM substrate, 20 mM HEPES pH 7.5, 25°C, 10 min
T1 construct: gene AADC1A; recombinant from bacterial expression plasmid pTYB12 (IMPACT-CN)
T1 sequence (Q1KSC6 1-471): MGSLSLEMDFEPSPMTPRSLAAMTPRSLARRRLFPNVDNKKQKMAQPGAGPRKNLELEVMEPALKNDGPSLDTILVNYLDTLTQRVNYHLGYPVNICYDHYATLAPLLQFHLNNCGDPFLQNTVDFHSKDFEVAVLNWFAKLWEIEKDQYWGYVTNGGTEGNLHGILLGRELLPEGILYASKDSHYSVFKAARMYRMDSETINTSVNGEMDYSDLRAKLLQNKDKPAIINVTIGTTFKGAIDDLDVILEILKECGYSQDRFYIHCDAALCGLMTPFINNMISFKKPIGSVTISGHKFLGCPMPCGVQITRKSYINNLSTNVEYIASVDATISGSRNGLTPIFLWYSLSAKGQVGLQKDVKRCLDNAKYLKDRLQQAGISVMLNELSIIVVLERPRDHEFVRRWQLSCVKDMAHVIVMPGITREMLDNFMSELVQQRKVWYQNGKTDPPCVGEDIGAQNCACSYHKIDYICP

AtSDC = molecular target: T2, AtSDC (Arabidopsis thaliana, UniProt Q9MA74); experiment: HPLC-EC decarboxylation assay; format: biochemical; conditions: 5 mM substrate, 20 mM HEPES pH 7.5, 25°C, 10 min
T2 construct: gene SDC; recombinant from bacterial expression plasmid pTYB12 (IMPACT-CN)
T2 sequence (Q9MA74 1-482): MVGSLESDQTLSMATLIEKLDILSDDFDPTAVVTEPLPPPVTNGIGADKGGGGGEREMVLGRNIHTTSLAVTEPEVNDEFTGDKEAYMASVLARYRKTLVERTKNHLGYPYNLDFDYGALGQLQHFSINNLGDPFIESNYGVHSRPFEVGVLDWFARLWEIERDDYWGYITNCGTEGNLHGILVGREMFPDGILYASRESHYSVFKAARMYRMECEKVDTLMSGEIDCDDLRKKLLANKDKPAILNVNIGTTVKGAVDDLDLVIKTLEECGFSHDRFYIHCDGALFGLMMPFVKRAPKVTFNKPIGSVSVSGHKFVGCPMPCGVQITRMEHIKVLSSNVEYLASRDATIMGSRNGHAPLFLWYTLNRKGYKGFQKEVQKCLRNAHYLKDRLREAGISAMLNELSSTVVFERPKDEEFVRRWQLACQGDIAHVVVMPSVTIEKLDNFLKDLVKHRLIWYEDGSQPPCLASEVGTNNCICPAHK

[1] = substrate: CSCC[C@H](N)C(=O)O; experiment: peroxide assay (Pierce Quantitative Peroxide Assay Kit); format: biochemical, Medicago truncatula; conditions: 20 mM HEPES pH 7.5, 25°C, 5 min, hyperbolic regression
Description: (§1) peroxide assay (Pierce Quantitative Peroxide Assay Kit) on MtAAS

[2] = substrate: N[C@@H](Cc1c[nH]c2ccccc12)C(=O)O; experiment: as above; format: biochemical, Medicago truncatula; conditions: 20 mM HEPES pH 7.5, 25°C, 5 min, hyperbolic regression
Description: as §1

[3] = substrate: N[C@@H](Cc1ccccc1)C(=O)O; experiment: as above; format: biochemical, Medicago truncatula; conditions: 20 mM HEPES pH 7.5, 25°C, 5 min, hyperbolic regression
Description: as §1

purified protein = substrate: CC(C)C[C@H](N)C(=O)O; experiment: purified protein; conditions: 20 mM HEPES pH 7.5, 25°C, 5 min, hyperbolic regression
[4] = substrate: CSCC[C@H](N)C(=O)O; experiment: peroxide assay (Pierce Quantitative Peroxide Assay Kit); format: biochemical, Cicer arietinum; conditions: 20 mM HEPES pH 7.5, 25°C, 5 min, hyperbolic regression
Description: (§2) peroxide assay (Pierce Quantitative Peroxide Assay Kit) on CaAAS

[5] = substrate: N[C@@H](Cc1c[nH]c2ccccc12)C(=O)O; experiment: as above; format: biochemical, Cicer arietinum; conditions: 20 mM HEPES pH 7.5, 25°C, 5 min, hyperbolic regression
Description: as §2

[6] = substrate: N[C@@H](Cc1ccccc1)C(=O)O; experiment: as above; format: biochemical, Cicer arietinum; conditions: 20 mM HEPES pH 7.5, 25°C, 5 min, hyperbolic regression
Description: as §2

Molecule: N[C@@H](Cc1ccccc1)C(=O)O [phenylalanine]
- HPLC-EC decarboxylation assay (SlAAAD): SlAAAD decarboxylation assay demonstrated activity towards tyrosine, dopa, phenylalanine and tryptophan

Molecule: N[C@@H](Cc1ccc(O)cc1)C(=O)O [tyrosine]
- HPLC-EC decarboxylation assay (SlAAAD): SlAAAD decarboxylation assay demonstrated activity towards tyrosine, dopa, phenylalanine and tryptophan

- HPLC-EC decarboxylation assay (AtSDC): AtSDC only has activity towards serine
Molecule: N[C@@H](CO)C(=O)O [serine]

B1: MtAAS (Medicago truncatula) (protein)
chain: MAMTFIPDAELLPTVVVNAKLSREEKHDEENIIGLTNLDVTKSIGETDANLDAIIAHYAQTITKYNMRNLGYPTNQDFNYEALAPLLQFHLNNAGDPFLGSSFSLNSMAFEVSVLDWFAKLWEIEKNEYWGYVTTGGTEGNLHGILAGREQLPDGILYTSQDSHYSIAKIAKMYRMKCVKVDSLLSGEIDCVQLEASLLAHKDKPAIINLNIGTTLKGGIDDLDLVIQTLNKCGFTRDRFYIHCDGALFGIMLPFIKQAPRISFKKPIDSVTISGHKFLGCPSPCGVLITRLKYMNALSRDVDIIASRDATITGSRCGHAPIFLWYALKKRGLIGLENEVHECIMKAHYLLNLLRDAGIGAMLNKFSNIVVFERPLDDHFTRRWNLASNKNTAHVVVLKHVTVEMLDSFVREFTEKQSIWYKDEQFQPPCIANDVGSRNCACSIHNLSRNC
notes: recombinant from bacterial expression plasmid pTYB12 (IMPACT-CN)
- Km [1]: 1900 ± 200 µM
- kcat [1]: 0.144 ± 0.006 s⁻¹
- kcat/Km [1]: 80 ± 10 M⁻¹ s⁻¹
- Km [2]: 1700 ± 300 µM
- kcat [2]: 0.125 ± 0.008 s⁻¹
- kcat/Km [2]: 70 ± 10 M⁻¹ s⁻¹
- Km [3]: 20 ± 10 µM
- kcat [3]: 0.358 ± 0.005 s⁻¹
- kcat/Km [3]: 17900 ± 2290 M⁻¹ s⁻¹
- Km (purified protein): 7600 ± 700 µM
- kcat (purified protein): 0.197 s⁻¹
- kcat/Km (purified protein): 30 M⁻¹ s⁻¹

B2: CaAAS (Cicer arietinum) (protein)
chain: MGSLEGNNMLSMVVSNAKLAREEERQENINITNTNLTINQCIGETDANLKAIITHYVDTLTYSSLRNLGYPTNQDFNYDALASLFHFHLNNAGDPFVGSSFSLNSTKFEVGVLDWFAELWEIEKSDYWGYVTTGGTEGNLHGILVGREQFPDGILYTSQDSHYSIFKIARMYRMECVKVGSLLSGEIDCVELEASLLAHKDKPAIINLNIGTTMKGGIDDLDIVIQTLKKCGFTRDRFYIHCDGALFGIMLPFIKQAQRISFKKPIDSVTISGHKFLGCPSPCGVVITRLKYINELSRDVEIIASRDATITGSRCGHAPILLWYALKKKGLIGLKNEVHECIINARYLLDQLRDAGIGAMLNEFSNIVVFEKPLDDNFTRRWNLATKGNIAHVVVLMHVTKEMLDTFVREFIQKRSIWYKHGHFQPLCIANHVGSTNCVCSIHKLS
notes: as for B1
- Km [4]: 1620 ± 200 µM
- kcat [4]: 0.351 ± 0.012 s⁻¹
- kcat/Km [4]: 220 ± 10 M⁻¹ s⁻¹
- Km [5]: 2800 ± 700 µM
- kcat [5]: 0.187 ± 0.016 s⁻¹
- kcat/Km [5]: 70 ± 100 M⁻¹ s⁻¹
- Km [6]: 90 ± 10 µM
- kcat [6]: 0.595 ± 0.009 s⁻¹
- kcat/Km [6]: 6600 ± 650 M⁻¹ s⁻¹
- Km (purified protein): 4600 ± 400 µM
- kcat (purified protein): 0.467 s⁻¹
- kcat/Km (purified protein): 100 M⁻¹ s⁻¹
